Here are results for 26 molecules from US6790633.

The chains are these.
B1: CGIM (peptide)
peptide: CGIM
B2: CVIA (peptide)
peptide: CVIA
B3: CPIM (peptide)
peptide: CPIM
B4: CVIF (peptide)
peptide: CVIF
B5: CVPM (peptide)
peptide: CVPM
B6: CKIM (peptide)
peptide: CKIM
B7: CVAM (peptide)
peptide: CVAM
B8: CVFM (peptide)
peptide: CVFM
B9: CVIL (peptide)
peptide: CVIL
B10: CEIM (peptide)
peptide: CEIM
B11: CSIM (peptide)
peptide: CSIM
B12: CIIM (peptide)
peptide: CIIM
B13: CTVA (peptide)
peptide: CTVA
B14: CIKS (peptide)
peptide: CIKS
B15: CIIC (peptide)
peptide: CIIC
B16: CVLS (peptide)
peptide: CVLS
B17: CCVQ (peptide)
peptide: CCVQ
B18: CAIM (peptide)
peptide: CAIM
B19: CLLL (peptide)
peptide: CLLL
B20: CVLM (peptide)
peptide: CVLM
B21: CVVM (peptide)
peptide: CVVM
B22: CVIM (peptide)
peptide: CVIM
B23: CLIL (peptide)
peptide: CLIL
B24: CVIS (peptide)
peptide: CVIS
B25: CAIL (peptide)
peptide: CAIL
B26: CIIS (peptide)
peptide: CIIS

The first experiment concerns the target T1, rat brain farnesyl:protein transferase (rat, UniProt Q04631 2-377; Q02293 1-437). Kind of experiment: cell-based or functional assay.
Take B1: the “concentration giving 50% inhibition” value was found to be 4 µM.
In the case of B2, the “fold decrease in affinity for the enzyme against CVIM, as estimated by the concentration required for 50% inhibition” value was > 30 fold.
Regarding B3, the “concentration giving 50% inhibition” value turned out to be 8 µM.
Still for that read-out and setting: next, B4: 0.5 µM; B5: 20 µM; B6: 0.7 µM.
With B7, the “fold decrease in affinity for the enzyme against CVIM, as estimated by the concentration required for 50% inhibition” value was > 30 fold.
For B8, the “concentration giving 50% inhibition” value was found to be 0.025 µM and the “fold increase in affinity for the enzyme against CVIM” value came out at 6 fold.
With B9, the “concentration giving 50% inhibition” value amounted to 12 µM.
B10: the “concentration giving 50% inhibition” value came to 1.5 µM.

The next experiment has as its target T1, rat brain farnesyl:protein transferase. Kind of experiment: cell-based or functional assay. The source holds these as a separate data set.
With B2, the “Concentration For 50% Inhibition” value came to 5 µM.
On the same count and under the same terms, next, B11: 0.2 µM; B12: 0.15 µM.
Consider B13, for which the “Concentration For 50% Inhibition” value turned out to be 30 µM.
On to B14, for which the “Concentration For 50% Inhibition” value was > 100 µM.
Turning to B15, the “Concentration For 50% Inhibition” value was 0.35 µM.
Still for that read-out and setting: next, B16: 3 µM; B17: 0.35 µM.
B18: the “Concentration For 50% Inhibition” value was determined as 0.15 µM.
On the same count and under the same terms, next, B19: 22 µM.
On the same count and under the same terms, the figure for B20 is 0.15 µM.
Still for that read-out and setting: the figure for B21 is 0.15 µM; for B22 it is 0.15 µM.
As to B23, the “Concentration For 50% Inhibition” value was 17 µM.
On the same count and under the same terms, the figure for B9 is 11 µM; for B24 it is 1 µM.
The same measure, in the same setting: the figure for B25 is 100 µM; for B26 it is 0.35 µM.
